Experimental data: PMC5799255, “Histone H5 is a potent Antimicrobial Agent and a template for novel Antimicrobial Peptides” (Scientific Reports, 2018)
Like-named read-outs stand apart in the source and are kept apart here.

Key:
[1] = test system: Escherichia coli (O157:H7); assay: Broth microdilution assay (MIC/MBC), planktonic bacteria; format: cell-based
Description: (§1) Antimicrobial activity of histone H5 against a variety of Gram-positive and Gram-negative planktonic bacteria was evaluated using a broth microdilution assay. The average minimum inhibitory concentration (MIC) and minimum bactericidal concentration (MBC) values (mean ± SD, n = 3) for six Gram-positive and four Gram-negative bacterial species are shown in Table 2. […] E. faecalis was the least susceptible to histone H5 inhibition, requiring over 32 µg/mL for complete bacterial growth inhibition which was the highest histone H5 concentration tested.
(§2) The bacterial strains tested in this study were Gram-positive bacteria (Bacillus cereus (ATCC 11778), methicillin-sensitive Staphylococcus aureus (ATCC 6538), methicillin-resistant Staphylococcus aureus (ATCC 29247), Listeria monocytogenes (ATCC 19112), Enterococcus faecalis (clinical isolate) and vancomycin-resistant Enterococcus (ATCC 51299)) and Gram-negative bacteria Escherichia coli K12 (ATCC 29425), Escherichia coli (O157:H7), Pseudomonas aeruginosa (ATCC 15442) and Salmonella typhimurium (ATCC 1535)). Bacterial colonies from glycerol stocks were plated on LB agar plates (BHI agar plates for L. monocytogenes) and incubated overnight at 37 °C. Single colonies from these plates were grown in 3 mL of LB broth (BHI broth for L. monocytogenes) overnight at 37 °C and shaken at 250 rpm. […] The bacterial suspension was pelleted at 3,000 × g, 4 °C for 10 minutes and washed with PBS (twice), and then adjusted to 10^5–10^6 CFUs/mL in PBS.
(§3) Supplementary Information
(§4) Broth microdilution assay
(§5) The protocol for this step of the project was based on established methods22. […] The microplate was incubated in the EON microplate reader overnight at 206 oscillations/min and at 37°C. […]
This assay is based on a previously described protocol22. The potential for hemolytic activity was assessed using rat red blood cells (RBCs) which were obtained from the University of Ottawa Animal Care Facility and in accordance with the University of Ottawa Animal Care

[2] = test system: Pseudomonas aeruginosa (ATCC 15442)
Description: (§6) Antimicrobial activity of histone H5 against a variety of Gram-positive and Gram-negative planktonic bacteria was evaluated using a broth microdilution assay.
(§7) The antimicrobial activity of these peptides against Gram-positive and Gram-negative planktonic bacteria was evaluated using broth microdilution assays.
as §2, §3, §4
(§8) The protocol for this step of the project was based on established methods22. Histone H5 or the peptides were dissolved in sterile water, pH 7.4, serially two-fold diluted and aliquoted in a 1:1 (v/v) ratio with bacteria. Kanamycin or ampicillin served as a positive control for inhibition, and sterile water (pH 7.4) as a negative control for inhibition. The tubes were then incubated for 3 hours at 37°C an d shaken at 200 rpm. Next, 100 µL of each tube and 100µL of LB broth (BHI broth for L. monocytogenes) was plated in wells of a 96-well microplate. The microplate was incubated in the EON microplate reader overnight at 206 oscillations/min and at 37°C. During this period, the EON microplate spectrophotometer and Gen5 data analysis software (BioTek, Winooski, VT, USA) were used to monitor the growth of bacteria by measuring the optical density at 600 nm every 30 minutes for 18 hours. The lowest protein concentration without visible bacterial growth was designated as the minimum inhibitory concentration (MIC). Bacteria (10 µL) from the wells at MIC, MIC x 2 and MIC x 3 concentrations of H5 were plated on LB agar (BHI agar for L. monocytogenes) and incubated at 37°C for 18 hours. The lowest concentration of histone H5 without a single colony was designated as the minimum bactericidal concentration (MBC).

[3] = test system: Listeria monocytogenes (ATCC 19112); conditions: for MIC: broth microdilution
Description: as §6, §7, §2, §3, §4, §8

[4] = test system: Gram-positive and Gram-negative planktonic bacteria; assay: Broth microdilution assay, summary over the planktonic bacteria tested; format: cell-based; conditions: bactericidal when MBC ≤4 times the MIC
Description: as §1
The bacterial strains tested in this study were Gram-positive bacteria (Bacillus cereus (ATCC 11778), methicillin-sensitive Staphylococcus aureus (ATCC 6538), methicillin-resistant Staphylococcus aureus (ATCC 29247), Listeria monocytogenes (ATCC 19112), Enterococcus faecalis (clinical isolate) and vancomycin-resistant Enterococcus (ATCC 51299)) and Gram-negative bacteria Escherichia coli K12 (ATCC 29425), Escherichia coli (O157:H7), Pseudomonas aeruginosa (ATCC 15442) and Salmonella typhimurium (ATCC 1535)). Bacterial colonies from glycerol stocks were plated on LB agar plates (BHI agar plates for L. monocytogenes) and incubated overnight at 37 °C. […]
as §5

[5] = broth microdilution, 3 h at 37 °C, then OD600 growth 18 h in LB broth, mean ± SD, n = 3
[6] = plated on LB agar, 37 °C 18 h, lowest concentration without a single colony, mean ± SD, n = 3
[7] = value in the figure, representative of three independent trials, each in triplicate

B1: histone H5: erythrocyte-specific linker histone purified from chicken erythrocytes, 190 amino acids (protein, UniProt P02259 2-190, looked up)
Histone H5: TESLVLSPAPAKPKRVKASRRSASHPTYSEMIAAAIRAEKSRGGSSRQSIQKYIKSHYKVGHNADLQIKLSIRRLLAAGVLKQTKGVGASGSFRLAKSDKAKRSPGKKKKAVRRSTSPKKAARPRKARSPAKKPKATARKARKKSRASPKKAKKPKTVKAKSRKASKAKKVKRSKPRAKSGARKSPKKK
- MIC [1, 5]: 4.9 ± 1.5 µg/mL
- MBC [1, 6]: 4.9 ± 1.5 µg/mL
- MIC [1, 7]: 6.7 µg/mL
- MIC ([2]; broth microdilution, MIC given in molar units): 0.1 ± 0.1 µM
- MIC [2, 5]: 2.9 ± 1 µg/mL
- MBC [2, 6]: 2.9 ± 1 µg/mL
- MIC [2, 7]: 4 µg/mL
- MIC ([3]; MIC given in molar units): 0.2 ± 0 µM
- MIC ([3]; 3 h at 37 °C, then OD600 growth 18 h in BHI broth, mean ± SD, n = 3): 4 ± 0 µg/mL
- MBC ([3]; plated on BHI agar, 37 °C 18 h, lowest concentration without a single colony, mean ± SD, n = 3): 4.4 ± 0.8 µg/mL
- MBC/MIC [4]: ≤ 4
